Molecular target: homotarsinin (Htr), cystine-linked homodimer (Phyllomedusa tarsius)
Test: SEC; 2 mg/mL peptide, Superdex Peptide 10/300 GL, 20 mM phosphate pH 7.0, 0.3 M NaCl, room temperature, 0.3 mL/min; homotarsinin and distinctin compared by retention time

## homotarsinin (Htr), cystine-linked homodimer (peptide)
  stoichiometry N: 2

Reference: PMC5244374
